First the molecules themselves.
B1: NEK8 (parent)
chain: VVGTPCYISPELCEGKPYNQKSDI
B2: C1orf137 (parent)
chain: LPQETNLTLKVCKPQAPQKLDPTL
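Further: lentivirally expressed fusions sorted by FACS into six bins by GFP to DsRed ratio, PSI derived from sequencing read proportions per bin multiplied by bin number.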

Variants of B1 are the subject of one data set. Description: protein stability index of a GFP-peptide fusion (GPS, HEK-293T) (PSI 1-6); higher = more stable. Conditions: c terminus: a fixed tail appended.
For the variant CVGTPCYISPELCEGKPYNQKSDI [V1C], the protein stability index turned out to be 3.31. Regarding RVGTPCYISPELCEGKPYNQKSDI [V1R], the protein stability index worked out at 3.74. In the case of PVGTPCYISPELCEGKPYNQKSDI [V1P], the protein stability index stood at 4.25. TVGTPCYISPELCEGKPYNQKSDI [V1T]: the protein stability index came out at 3.76.

Take DVGTPCYISPELCEGKPYNQKSDI [V1D]: the protein stability index was found to be 4.53. For GVGTPCYISPELCEGKPYNQKSDI [V1G], the protein stability index turned out to be 4.28. Turning to AVGTPCYISPELCEGKPYNQKSDI [V1A], the protein stability index was 3.78. For HVGTPCYISPELCEGKPYNQKSDI [V1H], the protein stability index stood at 2.77.

As for WVGTPCYISPELCEGKPYNQKSDI [V1W], the protein stability index came out at 2.62. With QVGTPCYISPELCEGKPYNQKSDI [V1Q], the protein stability index is 4.14.

On to SVGTPCYISPELCEGKPYNQKSDI [V1S], for which the protein stability index was found to be 4.03.

For EVGTPCYISPELCEGKPYNQKSDI [V1E], the protein stability index was determined as 4.48. Regarding LVGTPCYISPELCEGKPYNQKSDI [V1L], the protein stability index was 3.1. With YVGTPCYISPELCEGKPYNQKSDI [V1Y], the protein stability index is 2.88.

As to KVGTPCYISPELCEGKPYNQKSDI [V1K], the protein stability index amounted to 4.06.

For FVGTPCYISPELCEGKPYNQKSDI [V1F], the protein stability index was found to be 1.22. Same read-out and setting: the figure for MVGTPCYISPELCEGKPYNQKSDI [V1M] is 3.42; for IVGTPCYISPELCEGKPYNQKSDI [V1I] it is 2.32.

Regarding NVGTPCYISPELCEGKPYNQKSDI [V1N], the protein stability index worked out at 4.48. Same read-out and setting: for VVETPCYISPELCEGKPYNQKSDI [G3E] the value was 2.7; for VVITPCYISPELCEGKPYNQKSDI [G3I], 1.8; for VVATPCYISPELCEGKPYNQKSDI [G3A], 2.31. Same read-out and setting: the figure for VVQTPCYISPELCEGKPYNQKSDI [G3Q] is 2.5.

Take VVFTPCYISPELCEGKPYNQKSDI [G3F]: the protein stability index was found to be 1.48.

As for VVCTPCYISPELCEGKPYNQKSDI [G3C], the protein stability index was 2.23. For VVDTPCYISPELCEGKPYNQKSDI [G3D], the protein stability index was 3.26. The same measure, in the same setting: for VVNTPCYISPELCEGKPYNQKSDI [G3N] the value was 3.52; for VVPTPCYISPELCEGKPYNQKSDI [G3P], 3.38; for VVHTPCYISPELCEGKPYNQKSDI [G3H], 2.74. For VVSTPCYISPELCEGKPYNQKSDI [G3S], the protein stability index came to 3.01.

As for VVMTPCYISPELCEGKPYNQKSDI [G3M], the protein stability index was 1.84. Still for that read-out and setting: for VVTTPCYISPELCEGKPYNQKSDI [G3T] the value was 3.01; for VVLTPCYISPELCEGKPYNQKSDI [G3L], 1.63; for VVRTPCYISPELCEGKPYNQKSDI [G3R], 2.74.

As for VVKTPCYISPELCEGKPYNQKSDI [G3K], the protein stability index is 2.9.

As to VPGTPCYISPELCEGKPYNQKSDI [V2P], the protein stability index was found to be 3.44.

In the case of VHGTPCYISPELCEGKPYNQKSDI [V2H], the protein stability index was found to be 3.68. As for VNGTPCYISPELCEGKPYNQKSDI [V2N], the protein stability index worked out at 3.63.

For the variant VFGTPCYISPELCEGKPYNQKSDI [V2F], the protein stability index came out at 3.12. Same read-out and setting: for VDGTPCYISPELCEGKPYNQKSDI [V2D] the value was 3.9. Still for that read-out and setting: the figure for VYGTPCYISPELCEGKPYNQKSDI [V2Y] is 3.23; for VIGTPCYISPELCEGKPYNQKSDI [V2I] it is 3.56; for VSGTPCYISPELCEGKPYNQKSDI [V2S] it is 3.75.

As for VQGTPCYISPELCEGKPYNQKSDI [V2Q], the protein stability index was found to be 3.77. On the same count and under the same terms, for VLGTPCYISPELCEGKPYNQKSDI [V2L] the value was 3.58; for VMGTPCYISPELCEGKPYNQKSDI [V2M], 3.23. Still for that read-out and setting: the figure for VTGTPCYISPELCEGKPYNQKSDI [V2T] is 3.73; for VRGTPCYISPELCEGKPYNQKSDI [V2R] it is 3.4. On the same count and under the same terms, the figure for VWGTPCYISPELCEGKPYNQKSDI [V2W] is 2.8. Turning to VKGTPCYISPELCEGKPYNQKSDI [V2K], the protein stability index was 3.93.

As to VCGTPCYISPELCEGKPYNQKSDI [V2C], the protein stability index is 2.89. For the variant VEGTPCYISPELCEGKPYNQKSDI [V2E], the protein stability index was found to be 4.59.

With VGGTPCYISPELCEGKPYNQKSDI [V2G], the protein stability index is 3.66.

Turning to VAGTPCYISPELCEGKPYNQKSDI [V2A], the protein stability index was determined as 3.49.

Variants of B2 are the subject of a further data set. Described as above. Conditions: c terminus: a fixed tail appended.
With LPQETNLTLKVCKPQAPQKLDPML [T23M], the protein stability index came to 3.32. Consider LPQETNLTLKVCKPQAPQKLDPAL [T23A], for which the protein stability index turned out to be 3.47.

With LPQETNLTLKVCKPQAPQKLDPSL [T23S], the protein stability index turned out to be 3.85. The same measure, in the same setting: for LPQETNLTLKVCKPQAPQKLDPWL [T23W] the value was 2.48; for LPQETNLTLKVCKPQAPQKLDPRL [T23R], 3.48. The same measure, in the same setting: for LPQETNLTLKVCKPQAPQKLDPEL [T23E] the value was 4.91; for LPQETNLTLKVCKPQAPQKLDPKL [T23K], 4.16; for LPQETNLTLKVCKPQAPQKLDPLL [T23L], 3.06. LPQETNLTLKVCKPQAPQKLDPIL [T23I]: the protein stability index worked out at 3.37. Still for that read-out and setting: for LPQETNLTLKVCKPQAPQKLDPYL [T23Y] the value was 2.94; for LPQETNLTLKVCKPQAPQKLDPNL [T23N], 4.2. Take LPQETNLTLKVCKPQAPQKLDPCL [T23C]: the protein stability index was 3.89.

Regarding LPQETNLTLKVCKPQAPQKLDPHL [T23H], the protein stability index stood at 3.44. On the same count and under the same terms, for LPQETNLTLKVCKPQAPQKLDPGL [T23G] the value was 3.8; for LPQETNLTLKVCKPQAPQKLDPDL [T23D], 4.8.

On to LPQETNLTLKVCKPQAPQKLDPQL [T23Q], for which the protein stability index amounted to 4.21.

For the variant LPQETNLTLKVCKPQAPQKLDPFL [T23F], the protein stability index is 2.98. Consider LPQETNLTLKVCKPQAPQKLDPVL [T23V], for which the protein stability index was found to be 3.4. On the same count and under the same terms, the figure for LPQETNLTLKVCKPQAPQKLDPTH [L24H] is 4.75; for LPQETNLTLKVCKPQAPQKLDPTK [L24K] it is 4.21. The same measure, in the same setting: the figure for LPQETNLTLKVCKPQAPQKLDPTS [L24S] is 4.53; for LPQETNLTLKVCKPQAPQKLDPTM [L24M] it is 3.94. Same read-out and setting: for LPQETNLTLKVCKPQAPQKLDPTF [L24F] the value was 4.32; for LPQETNLTLKVCKPQAPQKLDPTQ [L24Q], 4.37; for LPQETNLTLKVCKPQAPQKLDPTA [L24A], 4.34.

On to LPQETNLTLKVCKPQAPQKLDPTW [L24W], for which the protein stability index stood at 3.3.

Turning to LPQETNLTLKVCKPQAPQKLDPTG [L24G], the protein stability index was 4.52. Same read-out and setting: for LPQETNLTLKVCKPQAPQKLDPTD [L24D] the value was 5.42; for LPQETNLTLKVCKPQAPQKLDPTT [L24T], 4.39; for LPQETNLTLKVCKPQAPQKLDPTN [L24N], 4.56. Same read-out and setting: for LPQETNLTLKVCKPQAPQKLDPTV [L24V] the value was 4.52. With LPQETNLTLKVCKPQAPQKLDPTE [L24E], the protein stability index came to 4.8. Take LPQETNLTLKVCKPQAPQKLDPTC [L24C]: the protein stability index turned out to be 4.35. On the same count and under the same terms, for LPQETNLTLKVCKPQAPQKLDPTR [L24R] the value was 4.33; for LPQETNLTLKVCKPQAPQKLDPTI [L24I], 4.1. Still for that read-out and setting: for LPQETNLTLKVCKPQAPQKLDPTY [L24Y] the value was 3.37; for LPQETNLTLKVCKPQAPQKLDVTL [P22V], 2.87. For the variant LPQETNLTLKVCKPQAPQKLDWTL [P22W], the protein stability index is 2.83. On the same count and under the same terms, the figure for LPQETNLTLKVCKPQAPQKLDTTL [P22T] is 3.54.

Consider LPQETNLTLKVCKPQAPQKLDYTL [P22Y], for which the protein stability index came to 3.06.

(Values after the supplement of paper PMC10567573.)
